Where “and” joins values, the source holds several entries; their conditions need not be identical. Identical values can stand only once.
Columns and labels:
[1] = target: Yu2 gp120 HIV-1 Env protein (HIV-1 (strain Yu2)) (UniProt P35961)

Row | Substance | IC50 (read off the curve) [1] | contribution of CDR H1 to gp120-binding surface area (HIV-1 gp120 (HIV-1)) [Å2] | contribution of CDR H2/FR3 to gp120-binding surface area (HIV-1 gp120 (HIV-1)) [Å2] | contribution of CDR H3 to gp120-binding surface area (HIV-1 gp120 (HIV-1)) [Å2] | total gp120-binding surface area (Total A 2) (HIV-1 gp120 (HIV-1)) [Å2]
1 | CD4-Ig (Fc fusion) | 0.08 µg/mL and 0.1 µg/mL |  |  |  | 
2 | VRC01 (antibody) |  | 44 | 701 | 122 | 867

From US20150044137A1
